The labels stand for the following.
B1: KLMGIVYKV polypeptide (SEQ ID NO: 2) (peptide)
peptide: KLMGIVYKV
notes: Synthetic 9-mer made by solid phase synthesis; It is the fragment of the mutated (N136Y) Twist neighbor protein; also called mutated polypeptide
B2: KMMGIVYKL polypeptide (SEQ ID NO: 5) (peptide)
peptide: KMMGIVYKL
notes: Synthetic 9-mer; also called mutated polypeptide
B3: KLMGIVYKL polypeptide (SEQ ID NO: 4) (peptide)
peptide: KLMGIVYKL
notes: as for B2

The first assay addresses T1, HLA-A0201 on T2 cells (human).
T1 construct: MHC class I molecule on TAP-deficient T2 cells; also called HLA-A0201 antigen
Kind of assay: T2 cell affinity test, 100 uM peptide overnight with human b2m, anti-HLA-A0201 FITC staining, flow cytometry. (In general: A flow cytometer gives signals particle by particle.)
Protocol: (§1) 2 duplicate wells per group were used. […] The cells were collected by centrifugation at 200 g for 5 minutes. […] The mean fluorescence intensity (MFI) was then detected and analyzed by flow cytometry (BD FACSJazz™) and its software, as shown in FIG. 1.
In the case of KLMGIVNKV [wild-type polypeptide KLMGIVNKV (SEQ ID NO: 6)], the MFI is 648.

B1 yielded an MFI of 666.

The molecule B2 returned an MFI of 692.

As to B3, the MFI worked out at 724.

For the next assay, the target named is T1, HLA-A0201 on T2 cells. Kind of assay: T2 cell affinity test, 100 uM peptide, flow cytometry; FI=(MFI sample-MFI background)/MFI background.
Protocol: as §1
Take KLMGIVNKV [wild-type polypeptide KLMGIVNKV (SEQ ID NO: 6)]: the “FI (fluorescence index)” value is 1.89.

On to B1, for which the “FI (fluorescence index)” value was determined as 1.97.

For B2, the “FI (fluorescence index)” value came to 2.09.

As for B3, the “FI (fluorescence index)” value was found to be 2.23.

These data come from US20220033438A1 (GENOIMMUNE THERAPEUTICS, published 2022).
